Experimental findings from US20140038892A1 are described below.

Some results are limits rather than exact numbers.

Sequence of FGF18 Δ51 - HA (234 Kd) conjugate (O76093 52-207, tags or fused parts left off): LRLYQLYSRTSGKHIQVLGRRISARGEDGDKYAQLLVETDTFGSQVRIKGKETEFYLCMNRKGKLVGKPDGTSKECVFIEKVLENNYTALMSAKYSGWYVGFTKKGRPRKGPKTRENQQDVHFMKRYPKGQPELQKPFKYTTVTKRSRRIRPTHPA
Sequence of FGF-18 delta51 (O76093 other isoform, or with tags, fused parts or gaps mutant limits assumed): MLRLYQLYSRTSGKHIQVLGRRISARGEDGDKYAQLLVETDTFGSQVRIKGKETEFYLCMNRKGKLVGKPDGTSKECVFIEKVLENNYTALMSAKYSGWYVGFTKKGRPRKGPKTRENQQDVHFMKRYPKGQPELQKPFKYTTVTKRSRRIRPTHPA
Sequence of FGF18 Δ33 - HA (234 Kd) conjugate (O76093 34-207, tags or fused parts left off): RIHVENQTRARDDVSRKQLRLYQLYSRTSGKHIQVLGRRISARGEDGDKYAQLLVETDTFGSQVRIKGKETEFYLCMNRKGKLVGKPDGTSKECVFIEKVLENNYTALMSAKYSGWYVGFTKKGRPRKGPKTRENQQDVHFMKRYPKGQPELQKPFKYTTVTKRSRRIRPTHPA
Sequence of FGF-18 delta33 (O76093 other isoform, or with tags, fused parts or gaps mutant limits assumed): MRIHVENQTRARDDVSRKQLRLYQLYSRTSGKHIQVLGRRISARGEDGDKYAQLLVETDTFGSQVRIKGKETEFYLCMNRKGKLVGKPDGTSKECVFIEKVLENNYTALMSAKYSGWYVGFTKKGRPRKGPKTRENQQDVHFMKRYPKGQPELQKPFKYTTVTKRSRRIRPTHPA
Sequence of FGF18 - HA (234 Kd) conjugate (O76093 28-207 limits assumed): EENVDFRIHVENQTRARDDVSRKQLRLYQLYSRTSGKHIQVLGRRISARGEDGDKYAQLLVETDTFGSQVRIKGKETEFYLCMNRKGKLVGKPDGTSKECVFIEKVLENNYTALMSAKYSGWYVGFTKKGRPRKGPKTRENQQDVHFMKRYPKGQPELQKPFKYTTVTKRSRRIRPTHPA
Sequence of FGF18 w.t. (O76093 28-207 limits assumed): as above

In this experiment the target is FGFR3-IIIc (UniProt P22607). Description: cell-based or functional assay.
Sequence of FGFR3-IIIc (P22607 23-806): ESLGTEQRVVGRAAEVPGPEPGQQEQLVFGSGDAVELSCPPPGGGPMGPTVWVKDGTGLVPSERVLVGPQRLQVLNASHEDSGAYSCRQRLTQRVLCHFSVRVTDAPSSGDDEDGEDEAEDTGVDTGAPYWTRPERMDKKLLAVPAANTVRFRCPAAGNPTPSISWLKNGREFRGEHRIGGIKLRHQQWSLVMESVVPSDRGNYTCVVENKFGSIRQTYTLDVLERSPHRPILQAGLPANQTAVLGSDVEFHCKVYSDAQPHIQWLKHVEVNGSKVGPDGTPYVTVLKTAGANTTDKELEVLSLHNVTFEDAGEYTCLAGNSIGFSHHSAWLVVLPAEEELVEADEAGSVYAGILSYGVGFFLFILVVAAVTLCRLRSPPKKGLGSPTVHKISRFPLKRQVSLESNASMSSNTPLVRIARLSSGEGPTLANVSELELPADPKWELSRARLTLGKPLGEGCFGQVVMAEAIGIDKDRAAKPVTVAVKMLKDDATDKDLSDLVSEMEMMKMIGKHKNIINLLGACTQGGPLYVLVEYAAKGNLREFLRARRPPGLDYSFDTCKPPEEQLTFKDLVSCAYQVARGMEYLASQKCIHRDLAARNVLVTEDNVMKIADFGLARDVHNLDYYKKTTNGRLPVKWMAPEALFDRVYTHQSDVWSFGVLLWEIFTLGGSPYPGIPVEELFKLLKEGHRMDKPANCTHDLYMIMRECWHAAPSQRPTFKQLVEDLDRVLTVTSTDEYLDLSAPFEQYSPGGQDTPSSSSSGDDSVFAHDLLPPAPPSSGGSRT
On to “FGF2 (from UniProt P09038 134-288) (ligand)”, for which the Mitogenic activity in FDCP cell lines assay (EC50) is 1 ng/mL and the Mitogenic activity, FGFR-transfected FDCP cell lines assay (EC50) came to 1 ng/mL.

Substance “FGF2 - CMC (90 Kd) conjugate (from UniProt P09038 134-288) (ligand)” registered a Mitogenic activity FDCP-R3 (EC50) of less than 3 ng/mL.

Substance “FGF2 - CMC (250 Kd) conjugate (from UniProt P09038 134-288) (ligand)” registered a Mitogenic activity FDCP-R3 (EC50) of less than 3 ng/mL.

In turn, “FGF2 - HA (17 Kd) conjugate (from UniProt P09038 134-288) (ligand)” had a Mitogenic activity FDCP-R3 (EC50) of less than 3 ng/mL. The same measure, in the same setting: with “FGF2 - HA (74 Kd) conjugate (from UniProt P09038 134-288) (ligand)” the figure was less than 5 ng/mL; with “FGF2 - HA (132 Kd) conjugate (from UniProt P09038 134-288) (ligand)”, less than 5 ng/mL. The same measure, in the same setting: with “FGF2 - HA (234 Kd) conjugate (from UniProt P09038 134-288) (ligand)” the figure was less than 5 ng/mL. Consider “FGF2 conjugate with HA-hyd (10% hydrazido groups) - BMPS (from UniProt P09038 134-288) (ligand)”, for which the Mitogenic activity in FDCP cell lines assay, Conjugates EC50, +Hyaluronidase was less than 5 ng/mL and the Mitogenic activity in FDCP cell lines assay, Conjugates EC50, -Hyaluronidase was more than 20 ng/mL. For “FGF2 conjugate with HA-hyd (10% hydrazido groups) - EMCS (from UniProt P09038 134-288) (ligand)” the same measures were less than 5 ng/mL and more than 40 ng/mL. For “FGF2 conjugate with HA-hyd (10% hydrazido groups) - GMBS (from UniProt P09038 134-288) (ligand)” the same measures were less than 5 ng/mL and more than 20 ng/mL. For “FGF2 conjugate with HA-hyd (10% hydrazido groups) - SMPH (from UniProt P09038 134-288) (ligand)” the same measures were less than 5 ng/mL and more than 10 ng/mL. Substance “FGF2 conjugate with HA-hyd (40% hydrazido groups) - BMPS (from UniProt P09038 134-288) (ligand)” yielded a Mitogenic activity in FDCP cell lines assay, Conjugates EC50, +Hyaluronidase of more than 15 ng/mL and a Mitogenic activity in FDCP cell lines assay, Conjugates EC50, -Hyaluronidase of more than 15 ng/mL. Substance “FGF2 conjugate with HA-hyd (40% hydrazido groups) - SMPH (from UniProt P09038 134-288) (ligand)” showed a Mitogenic activity in FDCP cell lines assay, Conjugates EC50, +Hyaluronidase of less than 5 ng/mL and a Mitogenic activity in FDCP cell lines assay, Conjugates EC50, -Hyaluronidase of less than 5 ng/mL.

The substance “FGF18 - HA (234 Kd) conjugate (from UniProt O76093 28-207) (ligand)” came in with a Mitogenic activity FDCP-R3 (EC50) of less than 10 ng/mL. The substance “FGF18 w.t. (from UniProt O76093 28-207) (ligand)” came in with a Mitogenic activity, FGFR-transfected FDCP cell lines assay (EC50) of 5 ng/mL. As to “FGF18 Δ33 - HA (234 Kd) conjugate (from UniProt O76093 34-207) (ligand)”, the Mitogenic activity FDCP-R3 (EC50) was less than 6.8 ng/mL.

Substance “FGF18 Δ51 - HA (234 Kd) conjugate (from UniProt O76093 52-207) (ligand)” gave a Mitogenic activity FDCP-R3 (EC50) of less than 12.5 ng/mL. “FGF-18 delta33 (from UniProt O76093 34-207) (ligand)” gave a Mitogenic activity, FGFR-transfected FDCP cell lines assay (EC50) of 3.5 ng/mL. Still for that read-out and setting: with “FGF-18 delta51 (from UniProt O76093 52-207) (ligand)” the figure was 5.5 ng/mL.
